Reference: the DeepSol protein solubility set

assay: soluble on expression in E. coli; label from the status in PepcDB or PDB records

**Q.** For “MGSDKIHHHHHHMSLSRLSIDAFRNIDSAQLAPGAGLNLIYGHNGSGKTSILEAIYFLGMGRSFRSHLSQRVIQNDADCLTLFAVAEGQAGDSRIGLRRHRSGDTEVKIDGEKVKRLSQLAEALPIQVITPESFSLLFEGPSARRQFIDWGAFHASKQFHLAWMNTRRILKQRNQLLRDGASYEHIAFWDKELIRYALEVTAIRNDYVGSLNGVLKGIIGEFLPDVDIRVSFTRGWDSKTDFSELLQSQYARDLAIGHTVSGPHKADLRLRVGNLPAQDALSRGQLKLLVCALRIAQGKLLKQQIDKHSIYLVDDLPSELDAKHRQLLLKELIDTGAQLFVTAIEPSAIVDSLPVPPDRMFHVQAGRVTQTK”, which “soluble on expression in E. coli” value is on record?
**A.** not soluble

**Q.** With “MGSDKIHHHHHHMSLTNVLFLAEELRVGGAETYFYKIENKIDLKKINFYTAAVNGRCFDKLNNKHMYFEYEKGLFSKIKTIKKIVISKNINVIHANSLRLAIISSIVKKLYKKDLKIVYTKHNLTILEKIHTKLFSAFVNKNVDIVLAVCNKDRDNMISIGVSEEKVKVIPNSIDLKHFKFNSKYLRDAGKDFKVGMLSRLSKEKNHEFFLDIAEKADFRALIGGDGPLREEINNRIEKSNLKKKVKMLGNIENSYEFLSSVDVMLLVSTREIFPMTLLEAMAVGTIVISVDIGGIRDCVINDKTGYVIDDYQSEKFITKISDILSDYDKNKELISAARELVENSFNLDITIDELQRLYGEVGL” as the sequence, how does the “soluble on expression in E. coli” value read?
**A.** not soluble

**Q.** With “MGSDKIHHHHHHMSNIKVLIQASSRSWAGGRDICMGLVNGEITVARTIKRALEAFPAAQLCLVAPEFDQDGELGGVIEYVKDKRLKAFYGFDESPLKRMIAASIELADNDYIVRIDGIHFCFDVDLSQKMLALALQKKLDCIKLPADFPVHFSSEVFRVGALRELVKLLDKPELEKFNIHPKIYFELNRYNYNFEYLRTLPQYSDEYLSECRKLAKDIYDIPRLEVGSKRTIWADTPSYHYQLALEYLNSNMKVLDIACGNGYGVRMMSTFLAEVHGADLDPEIINLAKAYTHEKNVEYYIEDITNLSFEDDSYDAVTCFETLEHIPEDDCLKELRRIIRPGGMLVLSTPQNSYGHIPVNACHIVEYSLDALLKLVGRYFLVVKVIGIKAGTIHSDADPYGTNTVLVCIKPF” as the sequence, how does the “soluble on expression in E. coli” value read?
**A.** not soluble

**Q.** With “MGSDKIHHHHHHMSNISEIVVELFKEASIYLPDDVKSKLKHAEEVECGACKDTLQAIELNNKIAETKQIPLCQDTGVPVIFLKIGTGISSERIIEIIKEIESGVKRATAEVPLRPNVVNPITRENLGTNTGMGAPFINFEFSENLNNEIEISVFPKGAGSENMSALKMLTPSEGLMGIKKFILETVANAGGKPCPPIVLGIGIGGTADISLKLAKKALLRDIGNRNPEKTIENLEKELLDSINQLGIGTMGLGGKITALDVFIEVNGCHTASLPVGICIQCWADRKAKRKIKL” as the sequence, how does the “soluble on expression in E. coli” value read?
**A.** not soluble

**Q.** With “MGSDKIHHHHHHMSNQTLKKISELDVFCLMVFKVIFQTGHANIAAKQLNVSAPKISRCLNMLRATFDDELFYRRQLGLKPTPMAEFLYEPVCQFCEAVLKIEQSISEKSSELASERLRVAVTPSIMASLSLAFSRSNARDAFSQLQFVIWGDDSADQIHNGELDMGVTFDACNEHPLSVEALGCLSGVCLAANEEHAIWSQSEPLTLETICRHPFLCLDGKGFNDKIDPLEVFARQNGADIDSIERVSSRDEWYSHLLTMNSVAFLPCSEAEICGALPGIRVVRLSDEEVGRLHGESMSPQYLLLENPAEYRRYSLEQRELIIQLIKQLLVKC” as the sequence, how does the “soluble on expression in E. coli” value read?
**A.** not soluble

**Q.** For “MGSDKIHHHHHHMSQINASASGTYAFDDQFKVNRLGYGTMQLTGEGTWGPYDDPNNAVSVIKKAVDLGINFFDTADSYGPWFADRYLAEGLKSASNRDEIFISDKVGQTRQGPGVWTPHGEPNYLRQQVEVSLMTLGIDHEDLLFLHRIDSHFSVAEQVGELKKLQDEGKIKHIGLSQVTVGQIKEAQKYAKIDAVENLYNVSDHRDDDVLDYAESQHMAFVPWFPLNTEKLTGANSPLAKIANKYKASPAQIALAWLLKRSGNVLPIPGTSSVAHLEDNVAAASIKLSDDDFKAITNLGVSNR”, which “soluble on expression in E. coli” value is on record?
**A.** not soluble

**Q.** Which “soluble on expression in E. coli” value does the source give for “MGSDKIHHHHHHMSQLDMKMKLKQYEQTVIEYLGAQGGHFIVASDDQTFVGILRTTLLKQLAISGDPLTSVTDPDYILKVIRDTSLRRKHLVVFIERMMQGKDTSMLVRQMKNTFANVKIIILTGETERQRLVLLHEIGADNFISKPISINTLIEKIAFTIKPQGKLGQLIDAAKALVAQGNFETALKAARKILEVKPNSAAGYLVMGDAWQGLGKLDKARESFEQASEHANLYMEPLKKLAELHKLTGDMNERLRYLERLDQLSPLNVERKVDMGEIHVELGNEERAEELFETAVQQATKDALNYIGEISEKIAAVYSSRDPHKAEKYYRQALDAKGSHLDHTDIATFNRLGIALRRQGKWQQAIEEYEKALHITPDDPNLMYNMSMAYAEGRQFDKACSIVMRIRQITPSFGSMDKTLSYNMGIIFSRGRQPADARVLFENALRLDPSFEKAQKALENLES” here?
**A.** not soluble

**Q.** Which “soluble on expression in E. coli” value does the source give for “MGSDKIHHHHHHMSQLVRPTLELPAGRRKVLLHSCCAPCSGEVMEAMTASGIDYAIYFYNPNIHPVKEYEIRKNENIRFAEEHGIEFIDADYDMDNWFERVKGMENEPERGIRCTACFDMRFERTALYAHEHGFDTITSSLGISRWKDMNQINGCGERAAARYDDLVYWTYNWRKGGGSQRMIEISKRENFYQQEYCGCVYSLRDTNRHRRAQGRERIHLGVKFYGVEEKL” here?
**A.** not soluble

**Q.** Which “soluble on expression in E. coli” value does the source give for “MGSDKIHHHHHHMSQQLTFADSEFSSKRRQTRKEIFLSRMENLLPWSQLLDVIEPFYPKVGNGRRPYPLETMFRIHCMQQWYSLSDEATEDALYEIASMRQFALLSLDKAIPDRTTIMNFRHLLEKHKLTRKLFKTVNQWLSDSGVMMTQGTLVDATIIEAPSSTKNKNNERDPDMHQTKKGNQWHFGMKAYIGVDAKSGLTHTLVTTAANEHDLNQLDNLLHGEEEFVSGDAGYQGAQKREELKDTNVEWLIAERPGKIRALKKRPRKNKTIINIEYLKASIRAKVEHPFRIIKCQFGFIKARYKGLMKNDSQLAMLFTLANLFTVDQMLRRQPRSV” here?
**A.** not soluble

**Q.** Which “soluble on expression in E. coli” value does the source give for “MGSDKIHHHHHHMSRFVLITPDVSFDGRLRQAVAGGLQGGVQTFFTSLLPADPNDLFAHLDQERPEVLILGPDVPVEEALRLATVMNVRFPELSVILASEPDPDFILQAMRAGIRDILSPDSDAAQIRVLLERASQQFAGRYRVQAAAPMTDTNKGLVIGVFSPKGGVGKTTIATNIAVGLGKIAPMSVVIVDLDLQFGDVASALYLDPQHTVTDAVSPAASQDSLVLKAFLTVHPASIYAVCAPPTPVDADEITPEQVSRLLEQLSEQFQYVVVDTAPGLPEIGLAAMEQCTDVVWVSGMDIPSVRGLRSGLDVLRQLDILPETRHVVLNMADSKLGLTVQDLESTIGAPVDVSIPRSRAVALSTNRGIPVLQESAKDPATKGLNQLVNRFNPAWRATSQRKLHRRVVV” here?
**A.** not soluble

**Q.** For “MGSDKIHHHHHHMSRTVVISQPTYLPWLGYFELIAKSDVFVFLDNVQCVKQSWHNRNRLKGNDDQLIWLTVPVKAHPLDTPLSKIQILNNPSVWRRKHLGTIQTCLGSAVYFHTIFPFIQEFINYEYEYLVDLNISLIKLFADLLGLSPNFVKASDLNPQGRRTEMLVNLCQQLDADYYYSPMGSKVYIEEEKHLFIEEDIKLNYQIWEHPCYSQRGKIFVSHLSILDTLMNIGLEATRSLIIPNKLKDI”, which “soluble on expression in E. coli” value is on record?
**A.** not soluble

**Q.** Which “soluble on expression in E. coli” value does the source give for “MGSDKIHHHHHHMSSHHETSENVVIKQADFIESVADALQYISYYHPKDFVDAMSEAYEREQSAAAKDAIAQILINSRMSAEGKRPLCQDTGIVTTFVKVGMGVKWDKTDMTIQQMVDEGVRRAYTNPDNPLRASIVADPAGSRKNTKDNTPSVVHIDMVPGNHVEVAIAAKGGGSENKAKMVMLNPSDDIAAWVEKTLPTMGAGWCPPGMLGIGIGGTAEKAAVLAKEALMESVDIHELMARGAQTTEEKLRLDIFERANNLGIGAQGLGGLTTVLDVKIKSAPTHAASKPVVMIPNCAATRHVHFHLDGTGPADLAPPSLSDWPEITREVGSDVRRVNLDTVTQADIEQWQSGETLLLSGKMLTGRDAAHKRIQSLIESGEGLPEGVDFTGKFIYYVGPVDPVGNEVVGPAGPTTATRMDKFTDLMLDKTGLMGMIGKAERGPATVESIKKHKAVYLMAVGGAAYLVSKAIKKSRVVAFADLGMEAIYEFDVQDMPVTVAVDSNGVNAHETGPAIWKVNIANANAKA” here?
**A.** not soluble

**Q.** For “MGSDKIHHHHHHMSSIYGADLRTVGERIKGERKRLGLSQTAFANLAGVGKTTQINYEKGTRNPDTEYLAALDSAGVDVYYVLTGRKSSGGSSDVQAPVEEPLDGYSPVPMYDIEAAAGAGRLIEHENIESTLYFQTQALSAEGLDPAHLIGAKVRGDSMGSTLQDGDRVIVDCSQRTPDGVFLLRVGEEYRIKRVQRVAGGAWLLISDNHAYEKEMIKPDEMQDVEILGRCRVRIGRVS”, which “soluble on expression in E. coli” value is on record?
**A.** not soluble

**Q.** For “MGSDKIHHHHHHMSSKPIAPLHGRTIIMTRAQEQQSEARSQLHALGSNVLDLPALVIGPPDDWQPLDDALADIKTFHWLVFSSANGVRAVEERLQRIGQSLANRPKGLKLAAVGRKTAQYLEHLGAAVDFVPPNFVADSLINHFPVSGFGLKMLLPRVQSGGRTILGEAFRESGAHVIEVAAYESRCPEAIPDDTATALANSNVDAIAFSSGKTAAHTASLLSHRFGSDWLQQLETVKVISIGPQTSLSCEQHFGRVDQEADPHNLEGLISACVKACRSEAETCPPGSR”, which “soluble on expression in E. coli” value is on record?
**A.** not soluble

**Q.** For “MGSDKIHHHHHHMSSNESQTLATISPTALSQLARYIKQWGQELGFAQVGITDTDLSEEEAKLQDWLDKGYHGEMGYMANHGMMRARPHELHQGTKRVVSLRMDYLPPSAGFATNLIDPTLGYISRYAGGRDYHKLMRQRIKKLGDKIEAYCQEQGFGATDSRPFVDSAPVMERPLAEKAGIGWTGKHSLILNHNAGSWFFLGELFINLPLPLDIPISDGCNTCVACIKSCPTGAIVEPYVVDGRRCISYLTIELQGAIPEEFRPLMGNRIYGCDDCQLVCPINAQAPLTQEHDFHIRQQILQPELLTLFNWSEKTFLSLTEGSAIRRIGHKRWLRNIAIALGNAPANPNIIEALSARKASDEVDDMVLEHINWALAQQQAKVQQQTKVQQQAKVQQAVQFEPARETPAQRKTARVVRSVEKGLPRDA”, which “soluble on expression in E. coli” value is on record?
**A.** not soluble

**Q.** For “MGSDKIHHHHHHMSSNTFTLGTKSVNRLGYGAMQLAGPGVFGPPRDRHVAITVLREALALGVNHIDTSDFYGPHVTNQIIREALYPYSDDLTIVTKIGARRGEDASWLPAFSPAELQKAVHDNLRNLGLDVLDVVNLRVMMGDGHGPAEGSIEASLTVLAEMQQQGLVKHIGLSNVTPTQVAEARKIAEIVCVQNEYNIAHRADDAMIDALAHDGIAYVPFFPLGGFTPLQSSTLSDVAASLGATPMQVALAWLLQRSPNILLIPGTSSVAHLRENMAAEKLHLSEEVLSTLDGISRE”, which “soluble on expression in E. coli” value is on record?
**A.** not soluble

**Q.** For “MGSDKIHHHHHHMSSVTLSGRGTLGDRQVYRLGYGAMQLAGPGVFGPPKDPEEAVRVLQAAVEAGINHIDTSDFYGPHVTNQLIRKALHPYPDDLCIVTKVSARRDEKGNWLPAMSPAELTQAVEDNLRHLGLEVLEVVNLRSMLSPHGPVEGSLEAPLATLLELKERGLIRHIGLSNVTAKQVADAQKMTPIVCVQNLYNVAHRADDALVDALAAQHIAWVPFFPLGGFTPLQAQELNEVAASLEATPMQVALAWLLQRAPNILLIPGTSSRTHLAENIAAAELVLPAEALRTLDNIATAARR”, which “soluble on expression in E. coli” value is on record?
**A.** not soluble

**Q.** With “MGSDKIHHHHHHMSTNLRRIQKIKGGSYIVSLPSDWVRENGLDVSREVEVFESSGIIKIRPKKDFNFERIIDFTDEETAEYLTSVYYMQGMTKITIQSKDVISRDVKDKIKMLQLELPGLNLKEESFNSITFEVDEEILKVQDSFFDFSNKALSILKDVTKIIETPREDMKQDLTSRCLALNSDYFKLIRSIALTVQRDDKYKLDVPVKDIILYAVASRDLGRFITHTRLLIGNIKQEDMKMRDQVLLLINTMENIITMFKTEDINMASRIRKNAHEILESVKSTSEANKELERMTGYALALMDDAVHKAVHL” as the sequence, how does the “soluble on expression in E. coli” value read?
**A.** not soluble
